Data published in patent US7696313B2, “Prodrug compounds with isoleucine” (priority 2000, dated 2010).
pIC50: −log10 of the molar value. Values joined by “and” are separate entries in the source; they are usually repeats but may differ in a detail not shown here. Equal values may be shown once. “Also recorded” adds a separate entry of the source.

Tests used:
[1] = system: doxorubicin-resistant colorectal carcinoma LS174t; experiment: LS174t human colorectal carcinoma xenograft efficacy; assay type: in vivo, nude mice; details: uncorrected
Procedure: (§1) In repeat-dose studies in tumor bearing mice, groups of ten mice were dosed with various amounts of prodrug for a total of five doses at either five day or 1 week intervals.

[2] = Metabolism and clearance in normal mice (plasma and urine, LC MS/MS); assay type: in vivo
Procedure: The metabolism and clearance of Suc-Ile-Ala-Leu-Dox was studied in normal mice. The mice were administered Suc-Ile-Ala-Leu-Dox at a single intravenous bolus dose of 117 mg/kg. Plasma samples were obtained at 1 and 4 hours. Plasma samples of 100 μl were transferred to Eppendorf tubes (1.5 mL) and an internal standard of daunorubicin (20 μL at 0.5 mg/ml) was added together with acetonitrile (400 μl). The tubes were capped and briefly vortexed followed by centrifugation at 14,000 rpm. 420 μl from each tube was removed and dried in vacuo. Each sample was reconstituted in 65 μl ammonium formate containing acetonitrile (20%) prior to analysis by reverse phase liquid chromatography in combination with tandem mass spectrometry (LC MS/MS).
Urine was collected at 2 and 24 hours post administration from pairs of mice in metabolic cages. Urine samples were diluted with ammonium formate containing acetonitrile (20%) to give a target analyte concentration within the practical range of the LC MS/MS assay. 30 μl of each diluted sample was placed in an Eppendorf tube (1.5 ml) and an internal standard of daunorubicin (20 μL at 0.5 mg/ml) was added together with 50 μl of ammonium formate containing acetonitrile (20%). Each sample was then analyzed by LC MS/MS.
An Agilent HP 1100. HPLC with DAD detector and Chemstation software was coupled to a PE Sciex API 365 mass spectrometer with an electrospray ion source.
HPLC was performed on a TSK-Gel Super ODS, […], 4.6×50 mm (TosoHaas) reversed phase column equipped with a […] C18 guard disc (Higgins Analytical) and stainless steel frit (Upchurch Scientific). Chromatography was performed at room temperature. The flow rate was 0.5 ml/min. Injection volume was 50 μl. Gradient elution was performed using a mobile phase of 20 mM ammonium formate with increasing amounts of acetonitrile. The API 365 was operated at 365° C. in a multiple reaction monitoring mode, set to monitor specific analyte parent-daughter ion pairs. Integration of chromatograms was performed by MacQuan software (PE Sciex) and quantitation of each analyte obtained by comparison to previously obtained calibration curves. Daunorubicin was used as an internal standard in all cases.
Percent of administered dose—plasma volume estimated at 40% of blood volume, which was calculated at 7% of animal's body weight.
Plasma samples were obtained at 1 and 4 hours from separate mice. Urine was collected at 2 and 24 hours post administration from pairs of mice in metabolic cages. The plasma and urine samples were prepared and analyzed as described in Example 4.

[3] = system: LNCaP, HT-29 and PC-3 cells; experiment: 3H-thymidine proliferation assay, stated across the cell lines used; assay type: cell-based; details: 48 hours, 3H-thymidine incorporation; read-out: IC50 of the positive control in the cell lines used
Procedure: (§2) Adherent cells, LNCaP (prostate carcinoma), HT-29 (colon carcinoma) and PC-3 (prostate carcinoma), were cultured in DMEM media containing 10% heat inactivated fetal calf serum (FCS). On the day of the study the cells were detached from the plate with a trypsin solution. The collected cells were washed and resuspended at a concentration of 0.25×10^6 cells/ml in DMEM containing 10% FCS. 100 μl of cell suspension were added to 96 well plates and the plates were incubated for 3 hours to allow the cells to adhere. […] The plates were then incubated for 24 hours, pulsed with 10 μl of a 100 μCi/ml ^3H-thymidine and incubated for an additional 24 hours (total incubation time 48 hours). The plates were harvested using a 96 well Harvester (Packard Instruments) and counted on a Packard Top Count Counter. Four parameter logistic curves were fitted to the ^3H-thymidine incorporation as a function of drug molarity using Prism software to determine IC50 values.
(§3) Prostate carcinoma cells, LNCaP and PC-3 cells or colon carcinoma cells HT-29, were incubated with increasing concentration of the indicated compounds for 48 hours and cellular proliferation was measured using the ^3H-thymidine assay.

[4] = system: doxorubicin-resistant colorectal carcinoma LS174t; details: tolerated dose under this dosing regimen; cited from earlier work
[5] = system: tumor bearing mice; details: repeat dosing, 5 doses; cited from earlier work
[6] = Metabolism and clearance in normal mice (plasma and urine, LC MS/MS); assay type: in vivo; details: after Suc-βAla-Ile-Ala-Leu-Dox 117 mg/kg
[7] = system: normal ICR mice; experiment: Second single dose Maximum Tolerated Dose (SD-MTD) study, 49 days; details: for acute toxicity within 24 hours: any dose level; for SD-MTD (mg/kg Dox=): doxorubicin equivalent
Procedure: (§4) In a second single dose Maximum Tolerated Dose (SD-MTD) study, groups of five normal ICR mice were administered intravenously bolus doses of Suc-Ile-Ala-Leu-Dox. The mice were observed daily for 49 days and body weights measured twice weekly.
(§5) In a second single dose Maximum Tolerated Dose (SD-MTD) study, groups of five normal ICR mice were administered intravenous bolus doses of Suc-βAla-Ile-Ala-Leu-Dox. The mice were observed daily for 49 days and body weights measured twice weekly.

[8] = mouse, in vivo, iv, 100 umol/kg
Procedure: (§9) Plasma was obtained from three individual animals in each group at 5 minutes, 1, 2, 4, or 6 hr.

[9] = system: normal mice; experiment: Initial single dose Maximum Tolerated Dose (MTD) study, 28 days; assay type: in vivo; details: for single dose MTD fold higher than doxorubicin alone, after post-analysis: about 75% active compound, versus doxorubicin […] mg/kg; for acute toxicity / single-dose MTD, doxorubicin equivalent: intravenous bolus; for acute toxicity: all dose levels tested; for single-dose MTD, doxorubicin equivalent: normal mice; for single-dose MTD fold higher than doxorubicin alone: versus doxorubicin 4 mg/kg
Procedure: (§6) In our initial single dose Maximum Tolerated Dose (MTD) study, groups of five normal mice were administered intravenous bolus doses of Suc-Ile-Ala-Leu-Dox. The mice were observed daily for 28 days and body weights measured twice weekly.
(§7) The mice were observed daily for 28 days and body weights measured twice weekly.
(§8) In the single dose Maximum Tolerated Dose (MTD) studies, groups of normal mice were administered intravenous bolus doses of the prodrug. The mice were observed daily for 28 days and body weights measured twice weekly. The MTD was estimated to be equal to the highest dose that produced no death in mice after 28 days.

[10] = as above; assay type: in vivo, mice; details: mouse, in vivo
Procedure: as §6, §7, §8

[11] = system: PC-3 (prostate carcinoma) cells; details: read-out: IC50 PC-3; 48 hours, 3H-thymidine incorporation
Procedure: as §2, §3

[12] = system: HT-29 (colon carcinoma) cells; details: read-out: IC50 HT29; 48 hours, 3H-thymidine incorporation
Procedure: as §2, §3

[13] = system: LNCaP (prostate carcinoma) cells; details: read-out: IC50 LNCaP; 48 hours, 3H-thymidine incorporation
Procedure: as §2, §3

[14] = for Major Plasma Metabolite, Table 7 / Major Plasma Metabolite, Table 8: mice
Procedure: as §9

[15] = system: tumor bearing mice; experiment: Repeat-dose tolerance (RD-MTD) in tumor bearing mice; assay type: in vivo
Procedure: as §1

[16] = as above; assay type: in vivo; details: mouse, in vivo
Procedure: as §1

[17] = Second single dose Maximum Tolerated Dose (SD-MTD) study, 49 days; details: mouse, in vivo, iv
Procedure: as §4, §5

[18] = after Suc-Ile-Ala-Leu-Dox 117 mg/kg, collected 0-2 hours
[19] = after Suc-Ile-Ala-Leu-Dox 117 mg/kg, collected 2-24 hours
[20] = 28 days, uncorrected doses, read-out: SD MTD (mg/kg), Table 7
[21] = SD MTD, doxorubicin equivalent dose, Table 8, value in parentheses, corrected results
[22] = SD MTD, molar equivalent dose of doxorubicin, Table 7, value in parentheses, uncorrected
[23] = corrected results, read-out: SD MTD (mg/kg), Table 8

COc1cccc2c1C(=O)c1c(O)c3c(c(O)c1C2=O)C[C@@](O)(C(=O)CO)C[C@@H]3O[C@H]1C[C@H](N)[C@H](O)[C@H](C)O1 [Doxorubicin, reference compound]
Optimal Efficacy Repeat Dose (mg/kg) ([1]; five doses at five day or 1 week intervals, 60 days): 4 (4) mg/kg
Optimal Efficacy Repeat Dose, molar equivalent dose of doxorubicin ([1]; value in parentheses): 4 (4) mg/kg
Urine 2 hr, percent of administered dose [2, 18]: 0.06 % of administered dose
Urine 24 hr, percent of administered dose [2, 19]: 0.36 % of administered dose
Plasma 4 hr, percent of administered dose ([2]; mouse, in vivo, 4 h): 0.00 % of administered dose
pIC50 [3]: 7.10 to 7.70
efficacy of doxorubicin alone at its tolerated dose in LS174t model [4]: historically ineffective; also recorded: completely ineffective
tolerated repeat dose level of doxorubicin (standard safe RD efficacious dose) [5]: 4 mg/kg and 3 mg/kg
Urine 2 hr, percent of administered dose ([6]; collected 0-2 hours): 0.21 % of administered dose
Urine 24 hr, percent of administered dose ([6]; collected 2-24 hours): 0.51 % of administered dose

CC[C@H](C)[C@H](NC(=O)CCC(=O)O)C(=O)N[C@@H](C)C(=O)N[C@@H](CC(C)C)C(=O)N[C@H]1C[C@H](O[C@H]2C[C@](O)(C(=O)CO)Cc3c(O)c4c(c(O)c32)C(=O)c2c(OC)cccc2C4=O)O[C@@H](C)[C@H]1O [Suc-Ile-Ala-Leu-Dox]
acute toxicity within 24 hours [7]: no acute toxicity
SD-MTD (mg/kg Dox=) [7]: 56 mg/kg Dox= and 58 mg/kg Dox=
AUC(0-t) [8]: 452 µM·h
single dose MTD fold higher than doxorubicin alone, after post-analysis [9]: at least 3.3 fold
mortalities ([9]; doses up to 117 mg/kg, 28 days): no mortalities
acute toxicity [9]: no acute toxicity
single-dose MTD, doxorubicin equivalent ([9]; 28 days): 66 mg of doxorubicin/kg and 70 mg of doxorubicin/kg
single-dose MTD fold higher than doxorubicin alone [9]: at least 16 fold
MTD [10, 20]: > 117 mg/kg
MTD [10, 21]: 56 mg/kg
MTD [10, 22]: > 70 mg/kg
MTD [10, 23]: 94 mg/kg
Urine 2 hr, percent of administered dose [2, 18]: 3.9 % of administered dose
Urine 24 hr, percent of administered dose [2, 19]: 15.0 % of administered dose
pIC50 [11]: 4.06
pIC50 [12]: 4.33
pIC50 [13]: 5.96
Major Plasma Metabolite, Table 7 [14]: Leu-Dox
Major Plasma Metabolite, Table 8 [14]: Leu-Dox
relative exposure to doxorubicin ([14]; tripeptide vs tetrapeptide counterpart, leucine vs isoleucine compounds): two fold decrease

CC[C@H](C)[C@H](NC(=O)CCNC(=O)CCC(=O)O)C(=O)N[C@@H](C)C(=O)N[C@@H](CC(C)C)C(=O)N[C@H]1C[C@H](O[C@H]2C[C@](O)(C(=O)CO)Cc3c(O)c4c(c(O)c32)C(=O)c2c(OC)cccc2C4=O)O[C@@H](C)[C@H]1O [Suc-βAla-Ile-Ala-Leu-Dox]
RD-MTD, doxorubicin equivalent per dose ([15]; Q7Dx5 as printed): 30 mg/kg doxorubicin equivalent
RD-MTD as total exposure ([15]; after 5 doses (Q5DX5)): approximately 150 mg/kg doxorubicin equivalent
treated animals terminated due to signs of toxicity ([15]; high dose group (68 mg/kg, Q5DX5), groups of ten): Two
RD-MTD fold higher than RD-MTD / tolerated repeat dose level of doxorubicin ([15]; versus doxorubicin 4 mg/kg): at least 6.5 fold
MTD ([16]; Q7Dx5 as printed, based on efficacy study in Example 8, read-out: RD-MTD (repeat-dose MTD)): ~53 mg/kg
MTD ([16]; Repeat Dose MTD, doxorubicin equivalent dose, Table 8, value in parentheses, corrected results): 30 mg/kg
MTD ([16]; corrected results, Q 5D × 5 or Q 7D × 5, read-out: Repeat Dose MTD (mg/kg), Table 8): 53 mg/kg
morbidity or mortality ([7]; 75 mg/kg dose group): no morbidity or mortality
animals euthanized due to weight loss or paralysis ([7]; 100 mg/kg dose, by Day 21, groups of five): three
acute toxicity within 24 hours [7]: no acute toxicity
SD-MTD (mg/kg Dox=) [7]: 42 mg/kg Dox=
SD-MTD Molar Ratio (Dox=) ([7]; fold higher on a molar basis than SD-MTD of doxorubicin): 2.6
MTD [17]: 75 mg/kg
AUC(0-t) [8]: 326 µM·h
morbidity ([9]; 75 mg/kg dose group): no morbidity
animals euthanized due to treatment-related toxicity ([9]; 100 mg/kg dose group, Day 21, groups of five): two
animals euthanized due to treatment-related toxicity ([9]; 125 mg/kg dose group, Day 14, groups of five): four
single dose MTD fold higher than doxorubicin alone, after post-analysis [9]: approximately 3.7 fold
acute toxicity [9]: No acute toxicity
single-dose MTD, doxorubicin equivalent ([9]; 28 days): 40 mg of doxorubicin/kg
single-dose MTD fold higher than doxorubicin alone [9]: approximately 10 fold
MTD [10, 20]: 75 mg/kg
MTD [10, 21]: 42 mg/kg
MTD [10, 22]: 42 mg/kg
MTD [10, 23]: 75 mg/kg
MTD ([10]; iv, intravenous bolus, normal mice, 28 days, read-out: single-dose Maximum Tolerated Dose (MTD)): 75 mg/kg
Urine 2 hr, percent of administered dose ([2]; mouse, in vivo): 12.7 % of administered dose
Urine 24 hr, percent of administered dose ([2]; mouse, in vivo): 4.81 % of administered dose
pIC50 [11]: 4.24
pIC50 [12]: 4.42
pIC50 [13]: 6.72
Major Plasma Metabolite, Table 7 [14]: Leu-Dox
Major Plasma Metabolite, Table 8 [14]: Leu-Dox
